Assay results taken from US20170081400A1 (CEPHALON, published 2017).

Legend:
[1] = target: T1, human TL1A extracellular domain with N-terminal HIS and FLAG tag (human, UniProt O95150 72-251); assay: SPR Run 6, purified Ab captured on Protein A, TL1A 5 ug/mL, timepoint 44
T1 construct: the whole entry is named
T1 sequence: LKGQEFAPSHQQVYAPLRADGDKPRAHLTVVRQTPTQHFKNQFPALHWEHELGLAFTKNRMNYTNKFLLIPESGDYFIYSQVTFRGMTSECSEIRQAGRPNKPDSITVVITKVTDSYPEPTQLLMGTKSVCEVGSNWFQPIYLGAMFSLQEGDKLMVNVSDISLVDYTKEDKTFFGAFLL
Description: (§1) 1.5. Antibody expression and antigen binding as determined by SPR. Using a CM5 sensor chip (GE Healthcare) Protein A (Pierce) was coupled to the chip surface using an amine coupling kit (GE Healthcare). Protein A was coupled on flow cell 1 and 2 (or alternatively 3 and 4) using a BIACORE® T200. […] The amount of supernatant or purified protein (as well as the concentration) injected during the capture stage varied between runs and is specified in the header of the Tables 3-11. At the end of injection of the supernatant or purified antibody the change in response units was measured. This value was reported as Capture Level in Tables 3-11. […] The response units were measured prior to the end of the dissociation phase. […] The sensorgrams were double referenced (flow cell 2 is subtracted from flow cell 1 and a buffer blank). As there were a large number of antibody variants to screen, these were screened across different runs (Tables 3-11). […] A summary of the conditions used in each run is below:
(§2) 2.1. […] In some experiment the antibodies were purified using Protein A chromatography (See 1.4) and purified antibodies were used in BIACORE® (GE Healthcare) experiments.

[2] = target: T1, human TL1A extracellular domain with …; assay: SPR Run 6, purified Ab captured on Protein A, TL1A 5 ug/mL, timepoint 170
Description: as §1, §2

B1: 320-454 (antibody, human IgG1, name in Kabat numbering, V domains shown)
VH: QVQLVQSGAEVKKPGASVKVSCKASGYTFTSYDANWVRQAPGQGLEWMGWLNPNSGNTGYAQKFQGRVTMTADRSTSTAYMELSSLRSEDTAVYYCAREVPETAAFEYWGQGTLVTVSS
VL: QSVLTQPPSVSGAPGQRVTISCTSSSSDIGAGLGVHWYQQLPGTAPKLLIEGYYNRPSGVPDRFSGSKSGTSASLTITGLLPEDEGDYYCQSYDGTLSALFGGGTKLTVLG
notes: human IgG1, lambda
B1 was tested, and the “TL1A Binding Level (Early)” value [1] was 43 RU and the “TL1A Binding Level (Late)” value [2] was 37 RU.

B2: 320-458 (antibody, human IgG1, name in Kabat numbering, V domains shown)
VH: QVQLVQSGAEVKKPGASVKVSCKASGYTFTSYDHNWVRQAPGQGLEWMGWLNPNSGNTGYAQKFQGRVTMTADRSTSTAYMELSSLRSEDTAVYYCAREVPETAAFEYWGQGTLVTVSS
VL: QSVLTQPPSVSGAPGQRVTISCTSSSSDIGAGLGVHWYQQLPGTAPKLLIEGYYNRPSGVPDRFSGSKSGTSASLTITGLLPEDEGDYYCQSYDGTLSALFGGGTKLTVLG
notes: human IgG1, lambda
In the case of B2, the “TL1A Binding Level (Early)” value [1] is reported as 59 RU and the “TL1A Binding Level (Late)” value [2] is reported as 53 RU.

B3: 320-472 (antibody, human IgG1, name in Kabat numbering, V domains shown)
VH: QVQLVQSGAEVKKPGASVKVSCKASGYTFTSYDINWVRQAPGQGLEWMGWLNPNSGNTGYAQKFQGRVTMTADRSTSTAYMELSSLRSEDTAVYYCAREVPETAAFEYWGQGTLVTVSS
VL: QSVLTQPPSVSGAPGQRVTISCTSSSSDIGAGLGVHWYQQLPGTAPKLLIEGYYNRPSGVPDRFSGSKSGTSASLTITGLLPEDEGDYYCQLYDGTLSALFGGGTKLTVLG
notes: human IgG1, lambda
With B3 the “TL1A Binding Level (Early)” value [1] was 23 RU and the “TL1A Binding Level (Late)” value [2] was 10 RU.

B4: 320-465 (antibody, human IgG1, name in Kabat numbering, V domains shown)
VH: QVQLVQSGAEVKKPGASVKVSCKASGYTFTSYDIQWVRQAPGQGLEWMGWLNPNSGNTGYAQKFQGRVTMTADRSTSTAYMELSSLRSEDTAVYYCAREVPETAAFEYWGQGTLVTVSS
VL: QSVLTQPPSVSGAPGQRVTISCTSSSSDIGAGLGVHWYQQLPGTAPKLLIEGYYNRPSGVPDRFSGSKSGTSASLTITGLLPEDEGDYYCQSYDGTLSALFGGGTKLTVLG
notes: human IgG1, lambda
In the case of B4, the “TL1A Binding Level (Early)” value [1] is reported as 92 RU and the “TL1A Binding Level (Late)” value [2] is reported as 78 RU.

B5: 320-461 (antibody, human IgG1, name in Kabat numbering, V domains shown)
VH: QVQLVQSGAEVKKPGASVKVSCKASGYTFTSYDWNWVRQAPGQGLEWMGWLNPNSGNTGYAQKFQGRVTMTADRSTSTAYMELSSLRSEDTAVYYCAREVPETAAFEYWGQGTLVTVSS
VL: QSVLTQPPSVSGAPGQRVTISCTSSSSDIGAGLGVHWYQQLPGTAPKLLIEGYYNRPSGVPDRFSGSKSGTSASLTITGLLPEDEGDYYCQSYDGTLSALFGGGTKLTVLG
notes: human IgG1, lambda
B5 was tested, and the “TL1A Binding Level (Early)” value [1] was 87 RU and the “TL1A Binding Level (Late)” value [2] was 82 RU.

B6: 320-466 (antibody, human IgG1, name in Kabat numbering, V domains shown)
VH: QVQLVQSGAEVKKPGASVKVSCKASGYTFTSYDIDWVRQAPGQGLEWMGWLNPNSGNTGYAQKFQGRVTMTADRSTSTAYMELSSLRSEDTAVYYCAREVPETAAFEYWGQGTLVTVSS
VL: QSVLTQPPSVSGAPGQRVTISCTSSSSDIGAGLGVHWYQQLPGTAPKLLIEGYYNRPSGVPDRFSGSKSGTSASLTITGLLPEDEGDYYCQSYDGTLSALFGGGTKLTVLG
notes: human IgG1, lambda
In the case of B6, the “TL1A Binding Level (Early)” value [1] is reported as 93 RU and the “TL1A Binding Level (Late)” value [2] is reported as 86 RU.

B7: 320-456 (antibody, human IgG1, name in Kabat numbering, V domains shown)
VH: QVQLVQSGAEVKKPGASVKVSCKASGYTFTSYDQNWVRQAPGQGLEWMGWLNPNSGNTGYAQKFQGRVTMTADRSTSTAYMELSSLRSEDTAVYYCAREVPETAAFEYWGQGTLVTVSS
VL: QSVLTQPPSVSGAPGQRVTISCTSSSSDIGAGLGVHWYQQLPGTAPKLLIEGYYNRPSGVPDRFSGSKSGTSASLTITGLLPEDEGDYYCQSYDGTLSALFGGGTKLTVLG
notes: human IgG1, lambda
With B7 the “TL1A Binding Level (Early)” value [1] was 52 RU and the “TL1A Binding Level (Late)” value [2] was 46 RU.

B8: 320-473 (antibody, human IgG1, name in Kabat numbering, V domains shown)
VH: QVQLVQSGAEVKKPGASVKVSCKASGYTFTSYDINWVRQAPGQGLEWMGWLNPNSGNTGYAQKFQGRVTMTADRSTSTAYMELSSLRSEDTAVYYCAREVPETAAFEYWGQGTLVTVSS
VL: QSVLTQPPSVSGAPGQRVTISCTSSSSDIGAGLGVHWYQQLPGTAPKLLIEGYYNRPSGVPDRFSGSKSGTSASLTITGLLPEDEGDYYCQSDDGTLSALFGGGTKLTVLG
notes: human IgG1, lambda
B8 was tested, and the “TL1A Binding Level (Early)” value [1] was 69 RU and the “TL1A Binding Level (Late)” value [2] was 55 RU.

B9: 320-469 (antibody, human IgG1, name in Kabat numbering, V domains shown)
VH: QVQLVQSGAEVKKPGASVKVSCKASGYTFTSYDILWVRQAPGQGLEWMGWLNPNSGNTGYAQKFQGRVTMTADRSTSTAYMELSSLRSEDTAVYYCAREVPETAAFEYWGQGTLVTVSS
VL: QSVLTQPPSVSGAPGQRVTISCTSSSSDIGAGLGVHWYQQLPGTAPKLLIEGYYNRPSGVPDRFSGSKSGTSASLTITGLLPEDEGDYYCQSYDGTLSALFGGGTKLTVLG
notes: human IgG1, lambda
B9 was tested, and the “TL1A Binding Level (Early)” value [1] was 69 RU and the “TL1A Binding Level (Late)” value [2] was 61 RU.

B10: 320-455 (antibody, human IgG1, name in Kabat numbering, V domains shown)
VH: QVQLVQSGAEVKKPGASVKVSCKASGYTFTSYDSNWVRQAPGQGLEWMGWLNPNSGNTGYAQKFQGRVTMTADRSTSTAYMELSSLRSEDTAVYYCAREVPETAAFEYWGQGTLVTVSS
VL: QSVLTQPPSVSGAPGQRVTISCTSSSSDIGAGLGVHWYQQLPGTAPKLLIEGYYNRPSGVPDRFSGSKSGTSASLTITGLLPEDEGDYYCQSYDGTLSALFGGGTKLTVLG
notes: human IgG1, lambda
For B10, the “TL1A Binding Level (Early)” value [1] was 27 RU and the “TL1A Binding Level (Late)” value [2] was 23 RU.

B11: 320-459 (antibody, human IgG1, name in Kabat numbering, V domains shown)
VH: QVQLVQSGAEVKKPGASVKVSCKASGYTFTSYDKNWVRQAPGQGLEWMGWLNPNSGNTGYAQKFQGRVTMTADRSTSTAYMELSSLRSEDTAVYYCAREVPETAAFEYWGQGTLVTVSS
VL: QSVLTQPPSVSGAPGQRVTISCTSSSSDIGAGLGVHWYQQLPGTAPKLLIEGYYNRPSGVPDRFSGSKSGTSASLTITGLLPEDEGDYYCQSYDGTLSALFGGGTKLTVLG
notes: human IgG1, lambda
For B11, the “TL1A Binding Level (Early)” value [1] was 20 RU and the “TL1A Binding Level (Late)” value [2] was 17 RU.

B12: 320-460 (antibody, human IgG1, name in Kabat numbering, V domains shown)
VH: QVQLVQSGAEVKKPGASVKVSCKASGYTFTSYDLNWVRQAPGQGLEWMGWLNPNSGNTGYAQKFQGRVTMTADRSTSTAYMELSSLRSEDTAVYYCAREVPETAAFEYWGQGTLVTVSS
VL: QSVLTQPPSVSGAPGQRVTISCTSSSSDIGAGLGVHWYQQLPGTAPKLLIEGYYNRPSGVPDRFSGSKSGTSASLTITGLLPEDEGDYYCQSYDGTLSALFGGGTKLTVLG
notes: human IgG1, lambda
With B12 the “TL1A Binding Level (Early)” value [1] was 114 RU and the “TL1A Binding Level (Late)” value [2] was 105 RU.

B13: 320-462 (antibody, human IgG1, name in Kabat numbering, V domains shown)
VH: QVQLVQSGAEVKKPGASVKVSCKASGYTFTSYDYNWVRQAPGQGLEWMGWLNPNSGNTGYAQKFQGRVTMTADRSTSTAYMELSSLRSEDTAVYYCAREVPETAAFEYWGQGTLVTVSS
VL: QSVLTQPPSVSGAPGQRVTISCTSSSSDIGAGLGVHWYQQLPGTAPKLLIEGYYNRPSGVPDRFSGSKSGTSASLTITGLLPEDEGDYYCQSYDGTLSALFGGGTKLTVLG
notes: human IgG1, lambda
With B13 the “TL1A Binding Level (Early)” value [1] was 58 RU and the “TL1A Binding Level (Late)” value [2] was 52 RU.

B14: 320-467 (antibody, human IgG1, name in Kabat numbering, V domains shown)
VH: QVQLVQSGAEVKKPGASVKVSCKASGYTFTSYDIHWVRQAPGQGLEWMGWLNPNSGNTGYAQKFQGRVTMTADRSTSTAYMELSSLRSEDTAVYYCAREVPETAAFEYWGQGTLVTVSS
VL: QSVLTQPPSVSGAPGQRVTISCTSSSSDIGAGLGVHWYQQLPGTAPKLLIEGYYNRPSGVPDRFSGSKSGTSASLTITGLLPEDEGDYYCQSYDGTLSALFGGGTKLTVLG
notes: human IgG1, lambda
For B14, the “TL1A Binding Level (Early)” value [1] was 44 RU and the “TL1A Binding Level (Late)” value [2] was 24 RU.
